According to the supplement of paper PMC10567573:

B1: ZNF649 (parent)
chain: MTKAQESLTLEDVAVDFTWEEWQF
B2: LOXL2 (parent)
chain: YVEVKEGKTWKQICDKHWTAKNSR

Variants of: B1
Experiment: protein stability index of a GFP-peptide fusion (GPS, HEK-293T) (PSI 1-6); higher = more stable
Conditions: c terminus: a fixed tail appended
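Also: lentivirally expressed fusions sorted by FACS into six bins by GFP to DsRed ratio, PSI derived from sequencing read proportions per bin multiplied by bin number.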

Question: With MTKAQESLTLEDVAVMFTWEEWQF [D16M] as the variant, how does the protein stability index read?
Answer: 2.34

Question: Which protein stability index does the source give for MTKAQESLTLEDVAVDFTQEEWQF [W19Q] here?
Answer: 4.43

Question: Which protein stability index does the source give for MTKAQESLTLEDVAVDFTWEEPQF [W22P] here?
Answer: 4.4

Question: Which protein stability index does the source give for MTKAQESLTLEDVAHDFTWEEWQF [V15H] here?
Answer: 4.33

Question: Which protein stability index does the source give for MTKAQESLTLEDIAVDFTWEEWQF [V13I] here?
Answer: 3.47

Question: Which protein stability index does the source give for MTKAQESLTLHDVAVDFTWEEWQF [E11H] here?
Answer: 2

Question: Which protein stability index does the source give for MTKAQESLTLEDLAVDFTWEEWQF [V13L] here?
Answer: 3.23

Question: Which protein stability index does the source give for DTKAQESLTLEDVAVDFTWEEWQF [M1D] here?
Answer: 3.95

Question: For MTKAQESLTLEAVAVDFTWEEWQF [D12A], which protein stability index is on record?
Answer: 1.72

Question: For MTKAQESLTLEDVAVDFTWEEWQV [F24V], which protein stability index is on record?
Answer: 3.77

Question: Which protein stability index does the source give for MTKAQESLTLEDVAVDFAWEEWQF [T18A] here?
Answer: 3.87

Question: With MTKAQESLTLEDVAEDFTWEEWQF [V15E] as the variant, how does the protein stability index read?
Answer: 3.94

Question: Which protein stability index does the source give for MTKTQESLTLEDVAVDFTWEEWQF [A4T] here?
Answer: 3.11

Question: With MTKAQESETLEDVAVDFTWEEWQF [L8E] as the variant, how does the protein stability index read?
Answer: 4.39

Question: With MTKAQESLTLEHVAVDFTWEEWQF [D12H] as the variant, how does the protein stability index read?
Answer: 2.68

Question: Which protein stability index does the source give for MTKAQRSLTLEDVAVDFTWEEWQF [E6R] here?
Answer: 2.88

Question: For MTKAQESLTLEDVAVDFTWEEWQL [F24L], which protein stability index is on record?
Answer: 3.83

Question: For MTKAQESLTLEDVAVDFTWEEGQF [W22G], which protein stability index is on record?
Answer: 4.33

Question: With MTWAQESLTLEDVAVDFTWEEWQF [K3W] as the variant, how does the protein stability index read?
Answer: 2.53

Question: Which protein stability index does the source give for MTKAQESLTLEDVAVDFTWENWQF [E21N] here?
Answer: 1.54

Question: With MTKAQESLTLEDVAVDFTWTEWQF [E20T] as the variant, how does the protein stability index read?
Answer: 2.5

Question: With MTKAQESLTLEQVAVDFTWEEWQF [D12Q] as the variant, how does the protein stability index read?
Answer: 2.84

Question: For MTKAQESLTLEDVAVDFTWEEWQC [F24C], which protein stability index is on record?
Answer: 3.99

Question: Which protein stability index does the source give for MTKAQESLTLEDVAVDFTWHEWQF [E20H] here?
Answer: 2.22

Question: With PTKAQESLTLEDVAVDFTWEEWQF [M1P] as the variant, how does the protein stability index read?
Answer: 2.81

Question: For KTKAQESLTLEDVAVDFTWEEWQF [M1K], which protein stability index is on record?
Answer: 3.29

Question: With MTKAQEVLTLEDVAVDFTWEEWQF [S7V] as the variant, how does the protein stability index read?
Answer: 2.5

Question: With MTKAQESCTLEDVAVDFTWEEWQF [L8C] as the variant, how does the protein stability index read?
Answer: 3.42

Question: For MTKAQESLTLEDVAVDFTPEEWQF [W19P], which protein stability index is on record?
Answer: 4.43

Question: With QTKAQESLTLEDVAVDFTWEEWQF [M1Q] as the variant, how does the protein stability index read?
Answer: 3.89

Question: For MTKAQEELTLEDVAVDFTWEEWQF [S7E], which protein stability index is on record?
Answer: 3.93

Question: For MTKAQESLTWEDVAVDFTWEEWQF [L10W], which protein stability index is on record?
Answer: 3.19

Question: With MTKAQESLTLEDVAVDFTGEEWQF [W19G] as the variant, how does the protein stability index read?
Answer: 4.61

Question: Which protein stability index does the source give for MTKAQESLTLEDDAVDFTWEEWQF [V13D] here?
Answer: 4.11

Question: For MTKAQFSLTLEDVAVDFTWEEWQF [E6F], which protein stability index is on record?
Answer: 1.89

Question: For MTKAQESLALEDVAVDFTWEEWQF [T9A], which protein stability index is on record?
Answer: 3.37

Question: Which protein stability index does the source give for MTKAQESLTLEDVAVDFTWEEWYF [Q23Y] here?
Answer: 2.38

Question: For MTKAQESLTLEDVAVDFTWLEWQF [E20L], which protein stability index is on record?
Answer: 1.3

Question: Which protein stability index does the source give for ATKAQESLTLEDVAVDFTWEEWQF [M1A] here?
Answer: 3.33

Question: Which protein stability index does the source give for MTKAQESLTLEDTAVDFTWEEWQF [V13T] here?
Answer: 4.11

Question: For MNKAQESLTLEDVAVDFTWEEWQF [T2N], which protein stability index is on record?
Answer: 3.62

Question: For MTKAQESLTLEDEAVDFTWEEWQF [V13E], which protein stability index is on record?
Answer: 4.25

Question: Which protein stability index does the source give for MTKAVESLTLEDVAVDFTWEEWQF [Q5V] here?
Answer: 3.37

Question: For MTKVQESLTLEDVAVDFTWEEWQF [A4V], which protein stability index is on record?
Answer: 2.52

Question: Which protein stability index does the source give for HTKAQESLTLEDVAVDFTWEEWQF [M1H] here?
Answer: 3.72

Question: Which protein stability index does the source give for MTKAQESLTLEDVAVDFTCEEWQF [W19C] here?
Answer: 3.85

Question: Which protein stability index does the source give for MTKAQESLTLEDNAVDFTWEEWQF [V13N] here?
Answer: 4.33

Question: With MTIAQESLTLEDVAVDFTWEEWQF [K3I] as the variant, how does the protein stability index read?
Answer: 2.74

Question: Which protein stability index does the source give for MTKANESLTLEDVAVDFTWEEWQF [Q5N] here?
Answer: 3.33

Question: For MTKAQESLTLEDVAVDFTWNEWQF [E20N], which protein stability index is on record?
Answer: 2.41

Question: With MTKAQESLTLEDVALDFTWEEWQF [V15L] as the variant, how does the protein stability index read?
Answer: 2.56

Question: Which protein stability index does the source give for MTKAQESLVLEDVAVDFTWEEWQF [T9V] here?
Answer: 3.16

Question: For MTYAQESLTLEDVAVDFTWEEWQF [K3Y], which protein stability index is on record?
Answer: 2.64

Question: Which protein stability index does the source give for TTKAQESLTLEDVAVDFTWEEWQF [M1T] here?
Answer: 3.79

Question: With MTKAQESLTLEDPAVDFTWEEWQF [V13P] as the variant, how does the protein stability index read?
Answer: 4.15

Question: With MTKAQESLTPEDVAVDFTWEEWQF [L10P] as the variant, how does the protein stability index read?
Answer: 4.11

Question: Which protein stability index does the source give for MTKAQESLTLEDVAVDFTWGEWQF [E20G] here?
Answer: 2.17

Question: Which protein stability index does the source give for MTKAQESLTLEDVAPDFTWEEWQF [V15P] here?
Answer: 4.07

Question: Which protein stability index does the source give for MTKAQESLTLECVAVDFTWEEWQF [D12C] here?
Answer: 2.65

Question: Which protein stability index does the source give for MTKAQISLTLEDVAVDFTWEEWQF [E6I] here?
Answer: 4.31

Question: Which protein stability index does the source give for MTKAQESLTLEDVAGDFTWEEWQF [V15G] here?
Answer: 4.07

Question: For MTKAQESLTLEDVAVNFTWEEWQF [D16N], which protein stability index is on record?
Answer: 3.77

Variants of: B2
Experiment: as above
Conditions: c terminus: a fixed tail appended

Question: With AVEVKEGKTWKQICDKHWTAKNSR [Y1A] as the variant, how does the protein stability index read?
Answer: 3.4

Question: Which protein stability index does the source give for CVEVKEGKTWKQICDKHWTAKNSR [Y1C] here?
Answer: 3.36

Question: For DVEVKEGKTWKQICDKHWTAKNSR [Y1D], which protein stability index is on record?
Answer: 3.52

Question: Which protein stability index does the source give for EVEVKEGKTWKQICDKHWTAKNSR [Y1E] here?
Answer: 3.46

Question: For FVEVKEGKTWKQICDKHWTAKNSR [Y1F], which protein stability index is on record?
Answer: 3.57

Question: For GVEVKEGKTWKQICDKHWTAKNSR [Y1G], which protein stability index is on record?
Answer: 3.72

Question: Which protein stability index does the source give for HVEVKEGKTWKQICDKHWTAKNSR [Y1H] here?
Answer: 3.14

Question: With IVEVKEGKTWKQICDKHWTAKNSR [Y1I] as the variant, how does the protein stability index read?
Answer: 2.68

Question: Which protein stability index does the source give for KVEVKEGKTWKQICDKHWTAKNSR [Y1K] here?
Answer: 3.84

Question: For LVEVKEGKTWKQICDKHWTAKNSR [Y1L], which protein stability index is on record?
Answer: 3.34

Question: Which protein stability index does the source give for MVEVKEGKTWKQICDKHWTAKNSR [Y1M] here?
Answer: 3.49

Question: For NVEVKEGKTWKQICDKHWTAKNSR [Y1N], which protein stability index is on record?
Answer: 3.93

Question: For PVEVKEGKTWKQICDKHWTAKNSR [Y1P], which protein stability index is on record?
Answer: 3.68

Question: For QVEVKEGKTWKQICDKHWTAKNSR [Y1Q], which protein stability index is on record?
Answer: 3.58

Question: With RVEVKEGKTWKQICDKHWTAKNSR [Y1R] as the variant, how does the protein stability index read?
Answer: 3.12

Question: Which protein stability index does the source give for SVEVKEGKTWKQICDKHWTAKNSR [Y1S] here?
Answer: 3.71

Question: With TVEVKEGKTWKQICDKHWTAKNSR [Y1T] as the variant, how does the protein stability index read?
Answer: 3.21

Question: With VVEVKEGKTWKQICDKHWTAKNSR [Y1V] as the variant, how does the protein stability index read?
Answer: 3.4

Question: For WVEVKEGKTWKQICDKHWTAKNSR [Y1W], which protein stability index is on record?
Answer: 2.29

Question: With YAEVKEGKTWKQICDKHWTAKNSR [V2A] as the variant, how does the protein stability index read?
Answer: 1.78

Question: For YCEVKEGKTWKQICDKHWTAKNSR [V2C], which protein stability index is on record?
Answer: 2.09

Question: For YDEVKEGKTWKQICDKHWTAKNSR [V2D], which protein stability index is on record?
Answer: 3.58

Question: Which protein stability index does the source give for YEEVKEGKTWKQICDKHWTAKNSR [V2E] here?
Answer: 3.7

Question: Which protein stability index does the source give for YFEVKEGKTWKQICDKHWTAKNSR [V2F] here?
Answer: 2.21

Question: With YGEVKEGKTWKQICDKHWTAKNSR [V2G] as the variant, how does the protein stability index read?
Answer: 1.98

Question: With YHEVKEGKTWKQICDKHWTAKNSR [V2H] as the variant, how does the protein stability index read?
Answer: 1.55

Question: Which protein stability index does the source give for YIEVKEGKTWKQICDKHWTAKNSR [V2I] here?
Answer: 2.66

Question: For YKEVKEGKTWKQICDKHWTAKNSR [V2K], which protein stability index is on record?
Answer: 3

Question: With YLEVKEGKTWKQICDKHWTAKNSR [V2L] as the variant, how does the protein stability index read?
Answer: 2.72

Question: For YMEVKEGKTWKQICDKHWTAKNSR [V2M], which protein stability index is on record?
Answer: 2.96

Question: With YNEVKEGKTWKQICDKHWTAKNSR [V2N] as the variant, how does the protein stability index read?
Answer: 3.69

Question: With YPEVKEGKTWKQICDKHWTAKNSR [V2P] as the variant, how does the protein stability index read?
Answer: 2.12
